The values below are quoted from earlier work in publication PMC5806463.

Usually Kd stands for the equilibrium constant for the complex coming apart.

The data set has as its target IL-18BP (Homo sapiens) (UniProt O95998).

IL-18BP (Homo sapiens), sequence (O95998 31-194): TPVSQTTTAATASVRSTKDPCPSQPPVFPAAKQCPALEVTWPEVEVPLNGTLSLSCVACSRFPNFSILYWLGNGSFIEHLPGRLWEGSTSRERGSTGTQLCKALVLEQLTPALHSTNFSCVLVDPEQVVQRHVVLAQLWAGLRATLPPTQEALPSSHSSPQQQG
IL-18, sequence (Q14116 37-193): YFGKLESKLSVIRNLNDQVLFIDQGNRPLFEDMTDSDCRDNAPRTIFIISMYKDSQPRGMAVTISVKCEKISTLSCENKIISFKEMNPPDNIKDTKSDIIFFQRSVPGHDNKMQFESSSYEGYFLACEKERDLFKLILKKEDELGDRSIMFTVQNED

With IL-18 (from UniProt Q14116), the dissociation constant Kd was 0.4 nM.
